# From patent publication US20170044545, “APTAMER FOR BONDING TO AUTOTAXIN AND INHIBITING BIOLOGICAL ACTIVITY OF AUTOTAXIN, AND USE FOR SAME” (RIBOMIC INC., published 2017)
# Target: T1, Autotaxin (ENPP2, NPP2) (Homo sapiens, UniProt Q13822 Q13822:36-863)
# Test: inhibition; text prints 3' CCUGGA, listing ccucgga
# Conditions: not given
row,Binder,IC50
1,"UCUGAGGGAAACAGGUUCUGCUCCUCGGA (ssRNA, 2'-F pyrimidines, 2'-OH purines) [SEQ 46]",50 nM

# Target: T1, Autotaxin (ENPP2, NPP2)
# Test: inhibition
# Conditions: not given
row,Binder,IC50
1,"UCUGAGGGAAACAGGUUUUGCUCCUCGGA (mixed, as 16(4) with dT19) [SEQ 16(16)]",45 nM
2,"UCUGAGGGAAACAGGUUUUGCUCCUCGGA (mixed, as 16(4) with dC12) [SEQ 16(20)]",44 nM
3,"UCUGAGGGAAACAGGUUUUGCUCCUCGGA (mixed, as 16(21) with dT1 dC2 dT3) [SEQ 16(25)]",2.3 nM
4,"UCUGAGGGAAACAGGUUUUGCUCCUCGGA (mixed, as 16(4) with dT17) [SEQ 16(18)]",29 nM
5,"UCUGAGGGAAACAGGUUUUGCUCCUCGGA (mixed, as 16(21) with dC23) [SEQ 16(29)]",3.3 nM
6,"UCUGAGGGAAACAGGUUUUGCUCCUCGGA (mixed, as 16(21) with dT25) [SEQ 16(27)]",3.2 nM
7,"UCUGAGGGAAACAGGUUUUGCUCCUCGGA (mixed, as 16(21) with dT1 dC2 dT3 dC23 dC24 dC26) [SEQ 16(32)]",1.4 nM
8,"UCUGAGGGAAACAGGUUUUGCUCCUCGGA (mixed, as 16(4) with dC21) [SEQ 16(15)]",77 nM
9,"UCUGAGGGAAACAGGUUUUGCUCCUCGGA (mixed, as 16(21) with dC24) [SEQ 16(28)]",2.7 nM
10,"UCUGAGGGAAACAGGUUUUGCUCCUCGGA (mixed, as 16(22) with ssH linker instead of 5' idT) [SEQ 16(31)]",0.8 nM
11,"UCUGAGGGAAACAGGUUUUGCUCCUCGGA (mixed, as 16(21) with dC26) [SEQ 16(26)]",2.1 nM
12,"UCUGAGGGAAACAGGUUUUGCUCCUCGGA (mixed, as 16(4) with dT16) [SEQ 16(19)]",51 nM
13,"GGGAAACAGGUUUUGCUCC (ssRNA, 2'-F pyrimidines, 2'-OH purines) [SEQ 22]",950 nM
14,"UCUGAGGGAAACAGGUUUUGCUCCUCGGA (mixed, as 16(21) with ssH linker instead of 5' idT) [SEQ 16(30)]",4.4 nM
15,"UCUGAGGGAAACAGGUUUUGCUCCUCGGA (mixed, as 16(21) with 5' 40 kDa PEG (GL2-400GS2)-ssH linker instead of 5' idT) [SEQ 16(24)]",7.4 nM
16,"UCUGAGGGAAACAGGUUUUGCUCCUCGGA (mixed, as 16(21) with PS at A10) [SEQ 16(22)]",0.5 nM
17,"UCUGAGGGAAACAGGUUUUGCUCCUCGGA (mixed, as 16(22) with 5' 40 kDa PEG (GL2-400GS2)-ssH linker instead of 5' idT) [SEQ 16(23)]",1.1 nM
18,"UCUGAGGGAAACAGGUUUUGCUCCUCGGA (mixed, as 16(4) with dT18) [SEQ 16(17)]",46 nM
19,"UCUGAGGGAACAGGUUUUGCUCCUCGGA (ssRNA, 2'-F pyrimidines, 2'-OH purines) [SEQ 37]",720 nM
20,"UCUGAGGGAAACAGGUUUUGCUCCUCGGA (mixed, 2'-F all pyrimidines; 2'-OMe G4 A5 G6 G7 A9 A11 A13 G20 G27 G28 A29; 2'-OH A10; dG8 dG14 dG15; 5' and 3' idT) [SEQ 16(21)]",2.2 nM
21,"UCUGAGGGAAACAGGUUUUGCUCCUCGGA (mixed, as 16(4) with dG8) [SEQ 16(14)]",6.3 nM

# Target: T1, Autotaxin (ENPP2, NPP2)
# Test: SPR; not more than 10% of SEQ 4
# Conditions: not given
row,Binder,binding result
1,"GGGAAACAGGUUUUGCUCC (ssRNA, 2'-F pyrimidines, 2'-OH purines) [SEQ 22]",no binding
2,"GGAAACAGGUUUUGCUC (ssRNA, 2'-F pyrimidines, 2'-OH purines) [SEQ 23]",no binding
3,"SEQ 9 clone (ssRNA, 2'-F pyrimidines, 2'-OH purines) RNA: GGGUGGCAACAGGACAUGGAACGCGCCCCAACUGCUUGAAACUGGUUUUGCUGAGCAGUGAUGUGAGAUGCGUCUUCGUAC",no binding

# Target: FGF2 (UniProt P09038 P09038:135-288)
# Sequence (P09038 135-288, one chain of several): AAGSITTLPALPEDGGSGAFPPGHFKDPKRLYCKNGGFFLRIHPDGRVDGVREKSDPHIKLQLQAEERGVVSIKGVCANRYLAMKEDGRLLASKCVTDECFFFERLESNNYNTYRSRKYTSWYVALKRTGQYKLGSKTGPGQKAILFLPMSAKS
# Test: SPR; FGF2 immobilized about 1100 RU; specificity control
# Conditions: tags: PeproTech
# Experimental: Whether the nucleic acids of SEQ ID NOs: 8 and 9 bind to autotaxin was evaluated by the surface plasmon resonance method. For the measurement, Biacore T100 manufactured by GE Healthcare was used, and the measurement was performed by the method shown below. About 2700 RU autotaxin was immobilized on a sensorchip surface of CM4 chip by using an amino coupling kit. The flow rate was 20 μL/min, and nucleic acids (20 μL) prepared to 0.3 μM were injected as an analyte. As a running buffer, solution A was used. In Table 1, nucleic acids showing a binding amount of not more than 10% of that of the aptamer of SEQ ID NO: 4 were considered not binding and marked with (−), and ones not less than that were considered binding and marked with (+).
# Whether the aptamer shown in SEQ ID NO: 16(23) has a binding activity to FGF2 (PeproTech) was confirmed by the surface plasmon resonance method. Autotaxin was immobilized on a flow cell 2 and FGF2 was immobilized on a flow cell 3 (about 1100 RU), and the aptamer was injected. The rest was performed similarly to Example 2.
row,Binder,binding result
1,"UCUGAGGGAAACAGGUUUUGCUCCUCGGA (mixed, as 16(22) with 5' 40 kDa PEG (GL2-400GS2)-ssH linker instead of 5' idT) [SEQ 16(23)]",no binding

# Target: T1, Autotaxin (ENPP2, NPP2)
# Test: SPR
# Conditions: not given
row,Binder,binding result
1,"UCUGAGGGAAACAGGUUUGCUCCUCGGA (ssRNA, 2'-F pyrimidines, 2'-OH purines) [SEQ 36]",no binding
2,"UCUGAGGGAUACAGGUAUUGCUCCUCGGA (ssRNA, 2'-F pyrimidines, 2'-OH purines) [SEQ 27]",no binding
3,"UCUGAGGGAAUCAGGAUUUGCUCCUCGGA (ssRNA, 2'-F pyrimidines, 2'-OH purines) [SEQ 28]",no binding
4,"UCUGAGGGAACAGGUUUUGCUCCUCGGA (ssRNA, 2'-F pyrimidines, 2'-OH purines) [SEQ 37]",no binding
5,"UCUGAGGGAAGCAGGUUUUGCUCCUCGGA (ssRNA, 2'-F pyrimidines, 2'-OH purines) [SEQ 35]",no binding

# Target: T1, Autotaxin (ENPP2, NPP2)
# Test: inhibition; NPP2 assay, pNP-TMP substrate, solution A (Ca, Mg), 37 C
# Conditions: not given
row,Binder,IC50
1,"UCUGAGGGAAACAGGUUUUGCUCCUCGGA (mixed, dT1; 2'-deoxy G8,G14,G15,C23,C26; 2'-OMe G4,A5,G6,G7,A9,A11,A13,G20,G27,G28,A29; 2'-OH A10 with PS; other pyrimidines 2'-F; 5' 40 kDa PEG (GL2-400GS2)-ssH linker; 3' idT) [SEQ 16(63)]",0.8 nM
2,"UCUGAGGGAAACAGGUUUUGCUCCUCGGA (mixed, dT1; 2'-deoxy G8,G14,G15,C23,C26; 2'-OMe G4,A5,G6,G7,A9,A11,A13,U18,G20,G27,G28,A29; 2'-OH A10 with PS; other pyrimidines 2'-F; 5' and 3' idT) [SEQ 16(62)]",23 nM
3,"UCUGAGGGAAACAGGUUUUGCUCCUCGGA (mixed, dT1; 2'-deoxy G8,G14,G15,C23,C26; 2'-OMe C2,U3,G4,A5,G6,G7,A9,A11,A13,G20,U22,C24,U25,G27,G28,A29; 2'-OH A10 with PS; other pyrimidines 2'-F; 5' 40 kDa PEG (GL2-400GS2)-ssH linker; 3' idT) [SEQ 16(66)]",0.7 nM
4,"UCUGAGGGAAACAGGUUUUGCUCCUCGGA (mixed, dT1; 2'-deoxy G8,G14,G15,C23,C26; 2'-OMe G4,A5,G6,G7,A9,A11,A13,G20,C21,G27,G28,A29; 2'-OH A10 with PS; other pyrimidines 2'-F; 5' and 3' idT) [SEQ 16(58)]",0.6 nM
5,"UCUGAGGGAAACAGGUUUUGCUCCUCGGA (mixed, dT1; 2'-deoxy G8,G14,G15,C23,C26; 2'-OMe G4,A5,G6,G7,A9,A11,A13,G20,G27,G28,A29; 2'-OH A10 with PS; other pyrimidines 2'-F; 5' 80 kDa PEG (GL4-800GS2)-ssH linker; 3' idT) [SEQ 16(64)]",1.3 nM
6,"UCUGAGGGAAACAGGUUUUGCUCCUCGGA (mixed, dT1; 2'-deoxy G8,G14,G15; 2'-OMe G4,A5,G6,G7,A9,A11,A13,G20,G27,G28,A29; 2'-OH A10; other pyrimidines 2'-F; 5' 80 kDa PEG (GL2-800GS2)-ssH linker; 3' idT) [SEQ 16(52)]",9.4 nM
7,"UCUGAGGGAAACAGGUUUUGCUCCUCGGA (mixed, dT1; 2'-deoxy G8,G14,G15,C23,C26; 2'-OMe C2,U3,G4,A5,G6,G7,A9,A11,A13,G20,C21,U22,C24,U25,G27,G28,A29; 2'-OH A10 with PS; other pyrimidines 2'-F; 5' 80 kDa PEG (GL2-800GS2)-ssH linker; 3' idT) [SEQ 16(67)]",0.6 nM
8,"UCUGAGGGAAACAGGUUUUGCUCCUCGGA (mixed, dT1; 2'-deoxy G8,G14,G15,C23,C26; 2'-OMe G4,A5,G6,G7,A9,A11,A13,U19,G20,G27,G28,A29; 2'-OH A10 with PS; other pyrimidines 2'-F; 5' and 3' idT) [SEQ 16(60)]",23 nM
9,"UCUGAGGGAAACAGGUUUUGCUCCUCGGA (mixed, 2'-deoxy G8,G14,G15,C23,C26; 2'-OMe G4,A5,G6,G7,A9,A11,A13,G20,G27,G28,A29; 2'-OH A10 with PS; other pyrimidines 2'-F; 5' 80 kDa PEG (GL2-800GS2)-ssH linker; 3' idT) [SEQ 16(51)]",2.8 nM
10,"UCUGAGGGAAACAGGUUUUGCUCCUCGGA (mixed, dT1,dC2,dT3; 2'-deoxy G8,G14,G15,C23,C24,C26; 2'-OMe G4,A5,G6,G7,A9,A11,A13,G20,G27,G28,A29; 2'-OH A10 with PS; other pyrimidines 2'-F; 5' 80 kDa PEG (GL2-800GS2)-ssH linker; 3' idT) [SEQ 16(54)]",2.3 nM
11,"UCUGAGGGAAACAGGUUUUGCUCCUCGGA (mixed, dT1; 2'-deoxy G8,G14,G15; 2'-OMe G4,A5,G6,G7,A9,A11,A13,G20,G27,G28,A29; 2'-OH A10 with PS; other pyrimidines 2'-F; 5' 80 kDa PEG (GL2-800GS2)-ssH linker; 3' idT) [SEQ 16(53)]",2.7 nM
12,"UCUGAGGGAAACAGGUUUUGCUCCUCGGA (mixed, dT1; 2'-deoxy G8,G14,G15,C23,C26; 2'-OMe G4,A5,G6,G7,A9,A11,A13,U16,G20,G27,G28,A29; 2'-OH A10 with PS; other pyrimidines 2'-F; 5' and 3' idT) [SEQ 16(59)]",16 nM
13,"UCUGAGGGAAACAGGUUUUGCUCCUCGGA (mixed, 2'-deoxy G8,G14,G15,C23,C26; 2'-OMe G4,A5,G6,G7,A9,A11,A13,G20,G27,G28,A29; 2'-OH A10; other pyrimidines 2'-F; 5' 80 kDa PEG (GL2-800GS2)-ssH linker; 3' idT) [SEQ 16(50)]",12 nM
14,"UCUGAGGGAAACAGGUUUUGCUCCUCGGA (mixed, dT1; 2'-deoxy G8,G14,G15,C23,C26; 2'-OMe G4,A5,G6,G7,A9,A11,A13,G20,C24,U25,G27,G28,A29; 2'-OH A10 with PS; other pyrimidines 2'-F; 5' and 3' idT) [SEQ 16(56)]",0.2 nM
15,"UCUGAGGGAAACAGGUUUUGCUCCUCGGA (mixed, dT1; 2'-deoxy G8,G14,G15,C23,C26; 2'-OMe G4,A5,G6,G7,A9,A11,A13,G20,U22,G27,G28,A29; 2'-OH A10 with PS; other pyrimidines 2'-F; 5' and 3' idT) [SEQ 16(57)]",0.3 nM
16,"UCUGAGGGAAACAGGUUUUGCUCCUCGGA (mixed, dT1; 2'-deoxy G8,G14,G15,C23,C26; 2'-OMe G4,A5,G6,G7,A9,A11,A13,U17,G20,G27,G28,A29; 2'-OH A10 with PS; other pyrimidines 2'-F; 5' and 3' idT) [SEQ 16(61)]",23 nM

# Target: T1, Autotaxin (ENPP2, NPP2)
# Test: inhibition; listing sequence lacks U7 printed in text
# Conditions: not given
row,Binder,IC50
1,"UCUGAGUGAAACAGGUUUUGCUGCUCGGA (ssRNA, 2'-F pyrimidines, 2'-OH purines [2'-F at all C and U; A and G 2'-OH]) [SEQ 48]",44 nM

# Target: T1, Autotaxin (ENPP2, NPP2)
# Test: inhibition; pNP-TMP 1 mM, autotaxin 0.3 nM, 37 C 24 h, solution A
# Conditions: not given
row,Binder,IC50
1,"SEQ 4 aptamer (ssRNA, 2'-F pyrimidines, 2'-OH purines) RNA: GGGACCGCACUCUAAACGCUCUGAGGGAAACAGGUUUUGCUCCUCGGAGCGUGGACGAAGUGAGACGUAUCCG",7 nM
